The values below come from patent US20250115680A1 (PROFOUNDBIO US, published 2025).

Assay [1] concerns the target T1, human PTK7 on the surface of PTK7-expressing tumor cell lines (human, UniProt Q13308 31-1070).
T1 sequence (looked up): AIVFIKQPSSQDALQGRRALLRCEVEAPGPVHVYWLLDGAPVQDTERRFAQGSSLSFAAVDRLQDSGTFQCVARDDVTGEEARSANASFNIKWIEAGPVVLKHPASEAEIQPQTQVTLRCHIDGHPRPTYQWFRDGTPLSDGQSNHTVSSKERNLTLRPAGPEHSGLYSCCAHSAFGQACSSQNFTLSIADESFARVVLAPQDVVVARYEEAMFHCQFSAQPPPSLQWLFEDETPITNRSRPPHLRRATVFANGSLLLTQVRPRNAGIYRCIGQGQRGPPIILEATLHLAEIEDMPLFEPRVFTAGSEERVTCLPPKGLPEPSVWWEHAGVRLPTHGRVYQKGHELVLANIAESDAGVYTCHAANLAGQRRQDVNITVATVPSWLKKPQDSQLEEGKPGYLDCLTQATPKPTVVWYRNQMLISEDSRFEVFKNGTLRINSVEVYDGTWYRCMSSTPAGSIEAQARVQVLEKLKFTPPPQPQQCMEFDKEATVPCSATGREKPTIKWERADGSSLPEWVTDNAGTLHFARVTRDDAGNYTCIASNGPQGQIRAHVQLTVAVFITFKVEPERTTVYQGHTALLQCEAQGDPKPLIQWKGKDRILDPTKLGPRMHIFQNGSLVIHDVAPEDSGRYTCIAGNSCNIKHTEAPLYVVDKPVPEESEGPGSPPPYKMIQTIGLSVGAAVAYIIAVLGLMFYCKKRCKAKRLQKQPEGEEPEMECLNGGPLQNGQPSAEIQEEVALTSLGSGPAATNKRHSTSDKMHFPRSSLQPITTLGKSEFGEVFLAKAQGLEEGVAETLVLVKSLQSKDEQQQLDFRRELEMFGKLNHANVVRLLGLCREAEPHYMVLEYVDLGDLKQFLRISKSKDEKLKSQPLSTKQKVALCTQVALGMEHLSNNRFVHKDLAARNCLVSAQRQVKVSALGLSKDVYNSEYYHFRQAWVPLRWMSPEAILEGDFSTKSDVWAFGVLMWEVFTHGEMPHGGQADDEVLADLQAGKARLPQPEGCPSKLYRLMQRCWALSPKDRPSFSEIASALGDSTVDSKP
Briefly: cell-based or functional assay.

Assay [2] addresses T1, human PTK7 on the surface of …. The experiment in a line: flow cytometry on MDA-MB-468 cells. A general note: Flow cytometry measures light scatter and fluorescence of single cells or particles in a stream.
Assay [3] concerns the target T2, human PTK7 extra-cellular domain (ECD) linked to His tag (human, UniProt Q13308 31-704).
T2 construct: extracellular domain; also called hPTK7-his; human PTK7-his protein; not shown: His tag
T2 sequence (looked up): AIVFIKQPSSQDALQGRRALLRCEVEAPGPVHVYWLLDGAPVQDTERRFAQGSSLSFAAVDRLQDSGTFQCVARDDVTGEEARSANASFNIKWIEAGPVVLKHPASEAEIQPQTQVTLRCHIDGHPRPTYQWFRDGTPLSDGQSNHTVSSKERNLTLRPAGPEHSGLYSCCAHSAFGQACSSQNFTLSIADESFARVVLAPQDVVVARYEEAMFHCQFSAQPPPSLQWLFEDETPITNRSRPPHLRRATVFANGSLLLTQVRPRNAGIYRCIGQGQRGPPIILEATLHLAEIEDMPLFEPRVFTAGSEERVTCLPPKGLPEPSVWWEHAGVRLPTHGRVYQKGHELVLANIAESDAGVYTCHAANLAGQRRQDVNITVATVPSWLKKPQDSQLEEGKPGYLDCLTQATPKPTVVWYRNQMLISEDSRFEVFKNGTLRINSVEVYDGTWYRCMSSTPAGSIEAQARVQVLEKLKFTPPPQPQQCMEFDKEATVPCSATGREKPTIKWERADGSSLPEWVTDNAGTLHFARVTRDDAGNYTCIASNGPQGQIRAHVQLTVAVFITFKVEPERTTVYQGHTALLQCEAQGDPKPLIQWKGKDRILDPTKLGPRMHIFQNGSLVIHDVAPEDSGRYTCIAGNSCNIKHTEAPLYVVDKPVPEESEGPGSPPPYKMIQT
The experiment in a line: ELISA screening of hybridoma supernatants on human PTK7-his. Here is the method: The cells were resuspended with an appropriate amount of electroporation buffer to ensure the cell concentration of about 2×10⁷ cells/mL. The cell suspension was added to a 9 mL electroporation tank for fusion. After fusion, the cell suspension was transferred to 20 mL RPMI 1640 complete medium containing 20% FBS and then left at room temperature for 20 min. The fused cells were resuspended with RPMI 1640 medium containing 1×HAT, 1×BIOMYC3, and 20% FBS. The cell suspension was added to several 96-well cell culture plates at 100 ul/well to ensure that the cell volume per well was about 5×10⁴ cells/well, and the plates were placed in a 37° C. cell incubator. After 7 days, additional 100 μL of RPMI 1640 complete medium containing 20% FBS, 1×HAT, and 1×BIOMYC-3 was added to each well. After 10 days, the cell culture supernatants from hybridoma parent clones were collected and used for screening by binding to human and cynomolgus monkey PTK7-his protein by ELISA.
Background: ELISA stands for enzyme-linked immunosorbent assay.

B1: PRO1107 (2C8-LD343 (8)) (other)
VH: QIQLVQSGAEVKKPGASVKVSCKASGYTFTTYGMSWVRQAPGQGLEWMGWINTHSGVPTYVDEFKGRVTMTLDTSTSTAYMELSSLRSEDTAVYYCARSPFDYGSRGAWFVYWGQGTTVTVSS
VL: DVVMTQSPDSLAVSLGERATINCRSSQSIVHNSGDTYLEWYQQKPGQPPKLLIYKVSNRFPGVPDRFSGSGSGTDFTLTISSLQAEDLAVYYCFQGSHVPWTFGGGTKVEIK
modifications: drug-linker LD343 (MMAE payload) coupled to cysteines of the TCEP-reduced antibody; DAR 7.5 by LC-MS; the chain carrying each drug is not stated
With B1, in assay [1], the “IC50 of in vitro cytotoxicity (Cell-titre Glo, 96 h), Detroit 562 cells” value came to 8.2 nM; the “IC50 of in vitro cytotoxicity (Cell-titre Glo, 96 h), MDA-MB-468 cells” value was determined as 0.00014 nM; the “IC50 of in vitro cytotoxicity (Cell-titre Glo, 96 h), OVCAR-3 cells” value is 0.0011 nM; the “IC50 of in vitro cytotoxicity (Cell-titre Glo, 96 h), PA-1 cells” value turned out to be 0.008 nM. In addition, in assay [1], the “IC50 of in vitro cytotoxicity (Cell-titre Glo, 96 h), SNG-M cells” value stood at 0.02 nM and the “IC50 of in vitro cytotoxicity (Cell-titre Glo, 96 h), SW780 cells” value turned out to be 27.4 nM.

B2: murine antibody m2C8 (antibody, V domains shown)
VH: QIQLVQSGPELKKPGETVKISCKASGYTFTTYGMSWVKQAPGKGLKWMGWINTHSGVPTYVDEFKGRSAFSLETSASTAYLQINNLKNEDTATYFCARSPFDYGSRGAWFVYWGQGTLVTVSS
VL: DVLMTQTPLSLPVSLGDQASISCRSSQSIVHNNGDTYLEWYLQKPGQSPKLLIYKVSNRFPGVPDRFSGSGSGTDFTLKISRVEAEDLGLYYCFQGSHVPWTFGGGTKLEIK
notes: Mouse hybridoma clone, tested as culture supernatant
B2: the binding result in assay [2] and in assay [3] was “binds” throughout.

B3: murine antibody m13C4 (antibody, V domains shown)
VH: EVKLVESGGGLVKPGGSLKLSCAASGFAFSTYDMFWFRQTPEKRLEWVATISSGGGYTYYPGSVKGRFTISRDNARNTLYLQMSSLRSEDTALYYCVRPLLRDSYFYFDVWGAGTTVTVSS
VL: DIVMTQSPAIMSTSPGEKVTMTCRASSSVSSSYLHWYQQKSGASPKLWIFRTSNLASGVPARFSGSGSGTSYSLTISSVEAEDAATYYCQQYSGYPLTFGAGTKLELK
notes: as for B2
Consider B3, for which the binding result in assay [2] and in assay [3] was “binds” throughout.

B4: murine antibody m2C5 (antibody, V domains shown)
VH: EVQLLSSGPELVTPGASVKISCKASGYTFTDYYINWLKQSHGKSLEWIGDINPNSGGPVYNQKFMAKATLTVDKTSNTAYMELRSLTSEDSAVYYCARGDYYGSNYNYWGQGTTLTVSS
VL: DILLTQSPAILSVSPGERVSFSCRASQNIGTSIHWYQQRTNGSPRLLIKFASESISGIPSRFSGSGSGTDFALTINSVESEDIADYYCQQSNNWPYTFGGGTKLEIK
notes: as for B2
With B4, the binding result in assay [2] and in assay [3] was “binds” in each case.
